Data on one protein can be found in US20110008376.

The target of data set [1] is cH5-1 (misfolded H5 of A/VN/1203/04, heat cycling).
The target in data set [2] is cH5-2 (misfolded H5 of A/VN/1203/04, heat cycling at pH 2).
The target of data set [3] is cH5-3 (misfolded H5 of A/VN/1203/04, heat cycling at pH 12).
Data set [4] addresses cH5-4 (glycated H5 of A/VN/1203/04).
Data set [5] concerns the target T1, dOVA-1 (misfolded ovalbumin comprising crossbeta, acid treated), P01012.
T1 chain: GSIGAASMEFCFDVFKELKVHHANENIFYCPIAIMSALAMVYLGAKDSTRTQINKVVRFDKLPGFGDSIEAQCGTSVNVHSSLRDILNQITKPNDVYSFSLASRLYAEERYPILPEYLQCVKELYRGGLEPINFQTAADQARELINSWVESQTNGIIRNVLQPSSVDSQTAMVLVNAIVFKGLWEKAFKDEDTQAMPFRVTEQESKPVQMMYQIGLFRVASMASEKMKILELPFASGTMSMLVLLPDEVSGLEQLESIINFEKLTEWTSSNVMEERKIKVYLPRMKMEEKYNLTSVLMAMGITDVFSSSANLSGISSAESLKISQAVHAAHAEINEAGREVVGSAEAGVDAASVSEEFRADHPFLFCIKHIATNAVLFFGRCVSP

Data set [6] concerns the target T2, dOVA-2 (misfolded ovalbumin comprising crossbeta, cyclic heating 30-85 C), P01012.
T2 chain: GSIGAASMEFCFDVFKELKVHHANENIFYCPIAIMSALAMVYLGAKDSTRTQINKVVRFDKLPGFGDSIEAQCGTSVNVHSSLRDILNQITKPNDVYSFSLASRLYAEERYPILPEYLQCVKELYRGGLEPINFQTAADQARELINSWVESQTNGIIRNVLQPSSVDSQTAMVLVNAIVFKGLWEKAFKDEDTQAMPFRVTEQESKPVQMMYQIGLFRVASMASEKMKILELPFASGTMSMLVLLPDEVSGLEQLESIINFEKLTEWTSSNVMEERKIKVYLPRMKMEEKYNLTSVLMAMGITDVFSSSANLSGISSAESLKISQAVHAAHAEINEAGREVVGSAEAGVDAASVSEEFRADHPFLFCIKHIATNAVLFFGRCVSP

For data set [7], the target named is T3, dOVA-3 (misfolded ovalbumin comprising crossbeta, about 16 h at 75 C), P01012.
T3 chain: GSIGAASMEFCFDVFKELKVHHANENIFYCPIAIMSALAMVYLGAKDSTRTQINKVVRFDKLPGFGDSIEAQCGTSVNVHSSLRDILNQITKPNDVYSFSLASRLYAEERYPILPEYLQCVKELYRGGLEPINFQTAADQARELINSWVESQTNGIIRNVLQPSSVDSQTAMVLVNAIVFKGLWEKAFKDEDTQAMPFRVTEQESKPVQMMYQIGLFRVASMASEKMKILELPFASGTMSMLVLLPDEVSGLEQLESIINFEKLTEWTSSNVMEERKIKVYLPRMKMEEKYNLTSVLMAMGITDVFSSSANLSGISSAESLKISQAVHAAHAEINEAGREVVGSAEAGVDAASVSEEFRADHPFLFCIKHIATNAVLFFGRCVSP

The target in data set [8] is nH5 (non-treated H5 of H5N1 strain A/Vietnam/1203/04, first example).
Data set [9] deals with T4, nOVA (untreated ovalbumin, 1 mg/ml in PBS), P01012.
T4 chain: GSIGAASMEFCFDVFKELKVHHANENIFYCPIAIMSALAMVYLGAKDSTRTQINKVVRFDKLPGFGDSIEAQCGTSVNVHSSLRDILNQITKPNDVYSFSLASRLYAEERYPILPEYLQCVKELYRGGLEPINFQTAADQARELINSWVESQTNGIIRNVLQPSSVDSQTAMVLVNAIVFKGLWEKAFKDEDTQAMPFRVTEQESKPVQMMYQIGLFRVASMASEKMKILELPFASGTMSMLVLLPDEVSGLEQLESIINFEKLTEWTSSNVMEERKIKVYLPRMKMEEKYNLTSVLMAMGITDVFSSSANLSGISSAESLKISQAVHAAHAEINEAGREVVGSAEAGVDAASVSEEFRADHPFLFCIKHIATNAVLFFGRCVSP

B1: tissue type plasminogen activator (tPA) (protein)
chain: SYQVICRDEKTQMIYQQHQSWLRPVLRSNRVEYCWCNSGRAQCHSVPVKSCSEPRCFNGGTCQQALYFSDFVCQCPEGFAGKCCEIDTRATCYEDQGISYRGTWSTAESGAECTNWNSSALAQKPYSGRRPDAIRLGLGNHNYCRNPDRDSKPWCYVFKAGKYSSEFCSTPACSEGNSDCYFGNGSAYRGTHSLTESGASCLPWNSMILIGKVYTAQNPSAQALGLGKHNYCRNPDGDAKPWCHVLKNRRLTWEYCDVPSCSTCGLRQYSQPQFRIKGGLFADIASHPWQAAIFAKHRRSPGERFLCGGILISSCWILSAAHCFQERFPPHHLTVILGRTYRVVPGEEEQKFEVEKYIVHKEFDDDTYDNDIALLQLKSDSSRCAQESSVVRTVCLPPADLQLPDWTECELSGYGKHEALSPFYSERLKEAHVRLYPSSRCTSQHLLNRTVTDNMLCAGDTRSGGPQANLHDACQGDSGGPLVCLNDGRMTLVGIISWGLGCGQKDVPGVYTKVTNYLDWIRDNMRP
In the case of B1, the “tPA mediated plasminogen activation assay” value in data set [1] was “cH5-1 (50% of standard)”; in [2] it was “cH5-2 (150% of standard)”; in data set [3] it was “cH5-3 (200% of standard)”; in [4], “cH5-4 (37% of standard)”; in data set [8], “nH5 (140% of standard)”. The tPA activation potency, Activation at 10 µg/mL in data set [5] stood at 97.4%; in data set [6] it was 107%; in data set [7] it was 60.9%; in data set [9] it was 48.8%. Besides, the tPA activation potency, Activation at 25 µg/mL in data set [5] came to 136%; in data set [6] it was 107%; in data set [7], 79%; in [9] it was 48.1%. The tPA-mediated plasminogen activation (plasmin chromogenic substrate), reference dOVA-2 at 80 µg/mL in [6] came out at 100%. In [6], the “tPA/Plg activating potential, crossbeta ovalbumin standard at 10 µg/ml” value is “at 10 and 50 µg/ml, tPA/plg activation is 100% and 85%, respectively”. In [6], the “tPA/Plg activating potential, crossbeta ovalbumin standard at 30 µg/ml” value was “The activating potential of crossbeta ovalbumin standard at 30 µg/ml is set to 100%”. Moreover, the “tPA/Plg activating potential, crossbeta ovalbumin standard at 50 µg/ml” value in data set [6] is “at 10 and 50 µg/ml, tPA/plg activation is 100% and 85%, respectively”.
